Series [1] can be described thus: Competition SPR, PtdIns(4,5)P2 pre-incubated protein on sulfatide liposomes. Conditions: 5 μM protein pre-incubated with increasing PtdIns(4,5)P2; read-out: IC50 of PtdIns(4,5)P2 competition for sulfatide binding. As for the experimental part: Surface plasmon resonance (SPR) binding experiments were performed on a BIAcore X instrument using L1 sensorchips coated with ˜0.5 mM of mixed sulfatides or PtdIns(4,5)P2 size calibrated liposomes. N-PTB domain or its mutants binding experiments were performed in a degassed solution containing 10 mM Tris-HCI (pH 7.4) and 150 mM NaCl. This buffer was used during equilibration, association and dissociation phases. Proteins were added to this buffer at the indicated concentrations. Regeneration of the phospholipid bilayer after dissociation phase was carried out using 20 mM NaOH. For competition SPR, increasing molar amounts of dioctanoyl PtdIns(4,5)P2 were preincubated with 5 μM N-PTB for 20 min at room temperature. The entire reaction was then exposed to an L1 sensorchip containing immobilized sulfatide liposomes (˜0.5 mM).

Series [2] can be described thus: CD spectroscopy, secondary structure composition. Type of series: physicochemical. Particulars: 5 μM construct, DICHROWEB/CDSSTR. As for the experimental part:
Spectra were collected using a Jasco J-720 spectropolarimeter. Far-UV CD spectra were measured for Dab2 PTB constructs (5 μM in 5 mM Tris, 100 mM potassium fluoride, 100 μM DTT, pH 6.8) using a 1 mm-slit-width cuvette. Five accumulated scans were recorded for each sample between 190 and 260 nm at 20° C. in increments of 0.5 nm. Background of buffer alone was subtracted from each spectrum. Raw data were converted to mean residue ellipticity and analyzed for secondary structure composition using DICHROWEB and deconvoluted using CDSSTR.

B1: N-PTB: N-terminal phosphotyrosine binding domain (residues 1-241) of human Disabled-2 (Dab2), expressed as GST-fusion in E. coli (protein)
chain: MSNEVETSATNGQPDQQAAPKAPSKKEKKKGPEKTDEYLLARFKGDGVKYKAKLIGIDDVPDARGDKMSQDSMMKLKGMAARGRSQGQHKQRIWVNISLSGIKIIDEKTGVIEHEHPVNKISFIARDVTDNRAFGYVCGGEGQHQFFAIKTGQQAEPLVVDLKDLFQVIYNVKKKEEEKKKIEEASKAVENGSEALMILDDQTNKLKSGVDQMDLFGDMSTPPDLNSPTESKDILLVDLNS
In general, IC50 refers to the midpoint of a concentration-inhibition curve. As for B1, the IC50 in series [1] was roughly 2000 nM. Also, in series [2], the “Helix 1” value came out at 8%, the “Helix 2” value turned out to be 10%, the “Strand 1” value amounted to 17% and the “Strand 2” value stood at 10%. For the same molecule, in series [2], the Turns worked out at 23% and the Unordered is 31%.

The record behind these values is patent publication US20100285583A1, “COMPOUNDS AND METHODS FOR INHIBITING PLATELET AGGREGATION” (priority 2009, published 2010).
